From IntAct's records for PubMed 9355745

B1: Tyrosine-protein phosphatase non-receptor type 1 (Homo sapiens), P18031 (parent)
chain: MEMEKEFEQIDKSGSWAAIYQDIRHEASDFPCRVAKLPKNKNRNRYRDVSPFDHSRIKLHQEDNDYINASLIKMEEAQRSYILTQGPLPNTCGHFWEMVWEQKSRGVVMLNRVMEKGSLKCAQYWPQKEEKEMIFEDTNLKLTLISEDIKSYYTVRQLELENLTTQETREILHFHYTTWPDFGVPESPASFLNFLFKVRESGSLSPEHGPVVVHCSAGIGRSGTFCLADTCLLLMDKRKDPSSVDIKKVLLEMRKFRMGLIQTADQLRFSYLAVIEGAKFIMGDSSVQDQWKELSHEDLEPPPEHIPPPPRPPKRILEPHNGKCREFFPNHQWVKEETQEDKDCPIKEEKGSPLNAAPYGIESMSQDTEVRSRVVGGSLRGAQAASPAKGEPSLPEKDEDHALSYWKPFLVNMCVATVLTAGAYLCYRFLFNSNT

Variants of: B1
Conditions: with pgfrb_human PDGFRB

effect of a mutation on the interaction	Variant
increasing interaction	C215S
